Measured values from patent publication US20090191623A1.

Biological target: azurin from Pseudomonas aeruginosa (Pseudomonas aeruginosa) (UniProt P00282)
Experiment: SPR equilibrium titration, azurin immobilised on CM5

azurin from Pseudomonas aeruginosa (Pseudomonas aeruginosa), sequence (P00282 21-148 limits assumed): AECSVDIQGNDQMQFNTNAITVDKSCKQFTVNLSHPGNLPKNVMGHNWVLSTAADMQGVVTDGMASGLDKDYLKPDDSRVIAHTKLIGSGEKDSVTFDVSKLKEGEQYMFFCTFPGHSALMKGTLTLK

NCAM (from UniProt P13591 20-718) (receptor)
Kd: 20 nM
